From patent US20090117043A1 (Human Genome Sciences, published 2009) come the findings set out here.

Where no end group is shown, it is not given here.

Sequences and labels used below:
T1: mature form of the neurokinin B polypeptide (amino acids 81 to 90 of SEQ ID NO:2) (human, ends and bridges not checked)
T1 construct: also called NKB; neurokinin 3 (NK3)
T1 peptide: DMHDFFVGLM

B1: N024C01 (scFv)
scFv: QVQLQQSGAEVKNPGSSVKVSCKPSRDTLSGDNFSSSVFSWVRQAPGQGLEWMGGIIPIFGVANYAQKFQPRVTISADMSTNTAYMELSSLRSEDTAVYYCASTWELRNAFDIWGKGTLVTVSSGGGGSGGGGSGGGGSQSVLTQPPSVSAAPGQKVTISCSGSTSNIGNNYVSWYQQHPGKAPKLMIYDVSKRPSGVPDRFSGSKSGNSASLDISGLQSEDEADYYCAAWDDSLSEFLFGTGTKLTVLG
B2: NO24B07 (scFv)
scFv: QVQLQQSGAEVKKPGSSVKVSCKASGGTFSSYAISWVRQAPGQGLEWMGGSIPKFRTANYAKKFQGRVTITADESTSTAYMELSSLRSDDTAVYYCARGSTYNLRNAFDIWGKGTLVTVSSGGGGSGGGGSGGGGSAQSVVTQPPSASGTPGQRVTISCSGGSSNIGRNTVNWYQQVPGTAPKLLIYTNNQRPSGVPDRFSGSKSGTSASLAISGLQSEDEADYYCAAWDDSLNDVEFGGGTKLTVLG
B3: NO25E05 (scFv)
scFv: QVQLQQSGAEVKKPGSSVKVSCKASGDTFSSNTISWVRQAPGQGLEWMGGIIPIIGTPHYAQKFQGRVTITADRSTSTAYMELTNLRSEDTAVYFCARNRVGTSSFDFWGQGTMVTVSSGGGGSGGGGSGGGGSALPVLTQPPSASGTPGQRVTISCSGSSSNIGSNTVNWYQQLPGTAPKLFIYSNNQRPSGVPDRFSGSKSGTSASLAISGLQSEDEADYYCSSWDDSLNLIFGGGTKVTVLG
B4: NO15F10 (scFv)
scFv: QVQLQQSGAEVKKPGSSVKVSCKASGGTFSSYAISWVRQAPGQGLEWMGGSIPKFRTANYAKKFQGRVTITADESTSTAYMELSSLRSDDTAVYYCARGSAYNLRNAFDIWGQGTTVTVSSGGGGSGGGGSGGGGSAQSVVTQPPSVSAAPGQRVTISCSGSSSNIANNYVSWYQQLPGTAPKLLIYDNNKRPSGIPDRFSGSKSGTSATLGITGLQTGDEADYYCGTWDSSLSAYVFGTGTKVTVLG
B5: NO15D08 (scFv)
scFv: QVQLLQSAPEVKKPGSSVRVSCKTSGGTFSSQLINWVRQPPGQGPEWMGGIIPIFGTANYAQKFQGRVTITADESTSTAYMELSSLRSEDTAVYYCARDLTAGRFDAFHIWGRGTLVTVSSGGGGSGGGGSGGGGSQSVLTQPPSVSAAPGQKVTISCSGSTSNIGNNYVSWYQQHPGKAPKLMIYDVSKRPSGVPDRFSGSKSGNSASLDISGLQSEDEADYYCAAWDDSLSEFLFGTGTKLTVLG
B6: NO24F09 (scFv)
scFv: QVQLQQSGAEVKKPGASVKVSCKASGYTFTGYYMHWVRQAPGQRLEWMGGILPFFGTTSYAQNFHGRLTITADESTRTAYMELSSLKSEDTAVYYCARDESADPKNAFDIWGRGTMVTVSSGGGGSGGGGSGGGGSQSVLTQPPPVSAAPGQKVTISCSGSTSNIGNNYVSWYQQRPGKAPKLMIYDVSKRPSGVPDRFSGSKSGNSASLDISGLQSEDEADYYCAAWDDSLSEFLFGTGTKLTVLG
B7: NO24D08 (scFv)
scFv: EVQLVQSGAEVKRPGASVKISCRTSGYTFTSYYIHWVRQAPGQGLEWLAIINPTAGNTYYTQDFQDRVTVTRDTSTSTVYMELRGLNSEDTAVYYCASPYGVRNAFDVWGQGTMVTVSSGGGGSGGGGSGGGGSQSVLTQPPSVSAAPGQKVTISCSGSTSNIGNNYVSWYQQHPGKAPKLMIYDVSKRPSGVPDRFSGSKSGNSASLDISGLQSEDEADYYCAAWDDSLSEFLFGTGTKLTVLG
B8: NO23F05 (scFv)
scFv: QVQLVQSGAEVKKPGFSVKVSCKASGGSFSNYVISWLRQAPGQGLEWMGGIMPIFGNANYAQKFQDRVTITADKSTSTAYMELSSLRSDDTAVYYCARDQIVVDPVTKGAYYSGLDVWGRGTMVTVSSGGGGSGGGGSGGGGSAQSVLTQPPSASGTPGQRVTISCSGGSSNIGANAITWFQQLPGTAPKLLIYHNNQRPSGVPDRFSGSKSGTSGSLAISGLQSEDEADYYCAVWDNSLNAMLFGGGTKLTVLG
B9: NO24E07 (scFv)
scFv: QVQLQESGGGLEQPGRSLRLSCTASGFTFDDYPMHWVRQAPGKGLEWVSGISGNSDRIAYADSVKGRFTISRDNSKNTLWLQMNSLRAEDTAIYYCARAARNWFDPWGQGTLVTVSSGGGGSGGGGSGGGGSQSVLTQPPSVSAAPGQKVTISCSGSTSNIGNNYVSWYQQHPGKAPKLMIYDVSKRPSGVPDRFSGSKSGNSASLDISGLQSEDEADYYCAAWDDSLSEFLFGTGTKLTVLG
B10: NO24F07 (scFv)
scFv: QVQLQQSGAEVKKPGSSVNVSCKASGGTFDTFGISWVRQAPGKGLEWMGVIAHDGSISYYADSVKGRFTFSRDNSKNTVSLQMNSPRPEDTAVYYCAKGEYDSSGYNAFDIWGKGTLVTVSSGGGGSGGGGSGGGGSQSVLTQPPSVSAAPGQKVTVSCSGSTSNIGNNYVSWYQQHPGKAPKLMIYDVSKRPSGVPDRFSGSKSGNSASLDISGLQSEDEADYYCAAWDDSLSEFLFGTGTKLTVLG
B11: NO24D01 (scFv)
scFv: QVQLQQSGGGVVQPGRSLRLSCAASGFTFDDYAMHWVRQAPGKGLEWVSGISWNSGSIGYADSVKGRFTISRDNAKNSLYLQMNSLRAEDTALYYCAKTGGGNSLDYWGRGTLVTVSSGGGGSGGGGSGGGGSQSVLTQPPSVSAAPGQKVTISCSGSTSNIGNNYVSWYQQHPGKAPKLMIYDVSKRPSGVPDRFSGSKSGNSASLDISGLQSEDEADYYCAAWDDSLSEFLFGTGTKLTVLG
B12: N015E08 (scFv)
scFv: QMQLQESGAEVKKPGSSVKVSCKASGDTFRSYIISWVRQAPGQGLEWMGGIIPMFGTTNYAQQFQGKVTITADDSTSTSYMELRSLRSDDTAVYYCARGTNYMDVWGQGTTVTVSSGGGGSGGGGSGGGGSQSVLTQPPSVSAAPGQKVTISCSGSTSNIGNNYVSWYQQHPGKAPKLMIYDVSKRPSGVPDRFSGSKSGNSASLDISGLQSEDEADYYCAAWDDSLSEFLFGTGTKLTVLG
B13: NO25C01 (scFv)
scFv: QVQLVQSGAEVKKPGTSVKVSCKAAGDTFRSYIISWVRQAPGQGLEWVGGIIPMFGTSNYAQKFQGRVTITADDSTSTAYMELSSLRSEDTAVYYCARTAQGGSYYNYWGQGTPVTVSSGGGGSGGGGSGGGGSQSVLTQPPSVSAAPGQKVTISCSGSTSNIGNNYVSWYQQHPGKAPKLMIYDVSKRPSGVPDRFSGSKSGNSASLDISGLQSEDEADYYCAAWDDGLSEFLFGTGTKLTVLG
B14: NO24B01 (scFv)
scFv: QVQLQQSGNEVKKPGSSVKISCKASGAPFNSYVISWVRQAPGQGLEWVGGVVPIFGTAHYAHQFQGRVTIIADKSTSTVYMELRGLTSDDTAEYFCARQGPYGKLDDWGQGTMVTVSSGGGGSGGGGSGGGGSALSYELTQPPSASGTPGQRVTISCSGSSSNIGSNYVYWYQQFPGTAPKLLMYRNNQRPSGVPDRFSGSKFGTSASLAISGLRSEDEADYYCAAWDDSLTGRVFGGGTKVTVLG
B15: NO24C05 (scFv)
scFv: QVQLQQSGPGLVKPSQTLSLTCAISGDSVSSNTAAWSWIRQSPSRGLEWLGRTYYSRSKWYKDYAVSVKSRITINPDTSKNQFSLQLDSVTPEDTAVYYCTREGYYDYSGVVDYWGQGTTVIVSSGGGGSGGGGSGGGGSQSVLTQPPSASGSPGQSVTISCTGTSSDVGGYNYVSWYQQHPGKAPKFMIYDVSKRPSGVSNRFSGSKSGNTASLTISGVQAEDEADYYCSSYTSASTVIFGGGTKLTVLG
B16: NO15D10 (scFv)
scFv: QVQLVQSGAEVKKPGSSVRISCKASGGSFRTYVVSWVRQAPGQGLEWMGGIIPVYGTPNYAQKFQGRVTITADEPTRTTYMELSSLRSEDTGVYYCARNGGGLDYWGQGTMVTVSSGGGGSGGGGSGGGGSQSVLTQPPSVSAAPGQKVTISCSGSTSNIGNNYVSWYQQHPGKAPKLMIYDVSKRPSGVPDRFSGSKSGNSASLDISGLQSEDEADYYCAAWDDSLSEFLFGTGTKLTVLG
B17: NO23E01 (scFv)
scFv: QVQLVQSGGGLVQPGRSLRLSCAASGFTFDDYAMHWVRQAPGKGLEWVSGISWNSASIGYADSVKGRFTISRDNAKNSLYLQMNSLRGEDTALYYCAKGARDALDIWGKGTLLTVSSGGGGSGGGGSGGGGSQSVLTQPPSVSAAPGQKVTISCSGSTSNIGNNYVSWYQQHPGKAPKLMIYDVSKRPSGVPDRFSGSKSGNSASLDISGLQSEDEADYYCAAWDDSLSEFLFGTGTKLTVLG

This test deals with T1, mature form of the neurokinin B …. The experiment in a line: phage display selection of scFvs; conditions not given.
Consider B1, for which the binding result is on record as “binds”. B2: the binding result is “binds”. B3: the binding result is on record as “binds”. As to B4, the binding result was “binds”. As for B5, the binding result was “binds”.

Regarding B6, the binding result is listed as “binds”. B7: the binding result is recorded as “binds”. Regarding B8, the binding result was “binds”. As for B9, the binding result was “binds”. Take B10: the binding result is given as “binds”. Next, B11: “binds”; B12: “binds”; B13: “binds”. Consider B14, for which the binding result is “binds”.

As to B15, the binding result is listed as “binds”.

For the molecule B16, the binding result was “binds”. For B17, the binding result is given as “binds”.
